Reference: patent US20180305409A1 (SHAANXI MICOT TECHNOLOGY, published 2018)
Bridge positions count the residues as written; N and C are the ends. Square brackets hold non-standard residues; d marks the D form. Ends that are not written are not given here. hArg = N=C(N)NCCCC[C@H](N)C(=O)O

Experiments:
[1] = molecular target: human thrombin (human, UniProt P00734 328-622); test: cell-based or functional assay
[2] = molecular target: platelet GPIIb/IIIa receptor (human, UniProt P08514 32-1039; P05106 27-788); test: cell-based or functional assay
Chain of platelet GPIIb/IIIa receptor (P08514 32-1039, chain 1 of 2): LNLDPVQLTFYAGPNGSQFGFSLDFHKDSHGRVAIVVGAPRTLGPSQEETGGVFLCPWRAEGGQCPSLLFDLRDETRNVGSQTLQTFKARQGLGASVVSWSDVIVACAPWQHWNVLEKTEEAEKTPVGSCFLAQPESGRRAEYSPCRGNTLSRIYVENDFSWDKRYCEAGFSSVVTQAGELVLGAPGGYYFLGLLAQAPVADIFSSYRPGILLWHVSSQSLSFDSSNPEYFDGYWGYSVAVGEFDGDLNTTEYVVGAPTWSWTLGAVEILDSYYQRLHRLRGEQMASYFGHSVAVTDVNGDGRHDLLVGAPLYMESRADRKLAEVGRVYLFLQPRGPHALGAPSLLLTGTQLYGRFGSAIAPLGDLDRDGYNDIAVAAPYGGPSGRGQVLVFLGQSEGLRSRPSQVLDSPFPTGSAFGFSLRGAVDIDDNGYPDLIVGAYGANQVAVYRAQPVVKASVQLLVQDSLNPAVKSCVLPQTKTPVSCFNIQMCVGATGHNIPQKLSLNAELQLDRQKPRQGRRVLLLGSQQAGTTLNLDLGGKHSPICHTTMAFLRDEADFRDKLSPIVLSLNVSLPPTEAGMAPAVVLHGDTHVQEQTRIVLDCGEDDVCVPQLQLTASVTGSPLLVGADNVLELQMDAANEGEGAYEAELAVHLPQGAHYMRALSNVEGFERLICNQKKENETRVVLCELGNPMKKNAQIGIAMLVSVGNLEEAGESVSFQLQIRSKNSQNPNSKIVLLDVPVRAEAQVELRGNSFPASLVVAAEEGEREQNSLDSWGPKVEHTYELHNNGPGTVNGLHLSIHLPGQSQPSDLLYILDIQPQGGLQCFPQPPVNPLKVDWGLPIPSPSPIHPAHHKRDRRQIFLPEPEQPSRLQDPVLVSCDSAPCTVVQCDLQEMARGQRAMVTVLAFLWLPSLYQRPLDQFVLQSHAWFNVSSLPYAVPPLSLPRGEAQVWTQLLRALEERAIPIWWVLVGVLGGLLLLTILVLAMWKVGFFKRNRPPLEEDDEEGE
Chain of platelet GPIIb/IIIa receptor (P05106 27-788, chain 2 of 2): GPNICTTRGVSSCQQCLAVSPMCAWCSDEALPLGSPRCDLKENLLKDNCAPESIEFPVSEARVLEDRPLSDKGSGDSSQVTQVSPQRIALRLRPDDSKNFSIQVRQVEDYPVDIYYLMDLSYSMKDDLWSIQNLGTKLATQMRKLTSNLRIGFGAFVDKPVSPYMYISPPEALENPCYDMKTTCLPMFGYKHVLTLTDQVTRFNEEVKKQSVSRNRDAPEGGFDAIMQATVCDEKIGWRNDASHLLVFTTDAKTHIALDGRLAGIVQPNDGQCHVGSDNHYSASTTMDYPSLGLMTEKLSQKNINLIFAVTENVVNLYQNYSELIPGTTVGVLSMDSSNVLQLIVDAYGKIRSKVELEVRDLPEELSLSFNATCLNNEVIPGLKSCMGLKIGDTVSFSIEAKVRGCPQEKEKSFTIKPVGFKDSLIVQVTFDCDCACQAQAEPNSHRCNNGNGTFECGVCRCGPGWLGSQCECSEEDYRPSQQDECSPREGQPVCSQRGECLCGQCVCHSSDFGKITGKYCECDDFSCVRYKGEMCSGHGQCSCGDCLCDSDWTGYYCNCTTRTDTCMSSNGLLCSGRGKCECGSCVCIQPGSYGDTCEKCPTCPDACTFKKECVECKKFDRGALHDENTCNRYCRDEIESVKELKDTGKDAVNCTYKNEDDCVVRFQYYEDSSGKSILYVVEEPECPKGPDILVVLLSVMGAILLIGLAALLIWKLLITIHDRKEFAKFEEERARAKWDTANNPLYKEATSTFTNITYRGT

Binder	APTT(S), human platelet poor plasma in vitro, 1 × 10^-6 mol/L (saline 33.10) [1]	Fold of Prolongation in APTT, 1 × 10^-6 mol/L [1]	Fold of Prolongation in PT, 1 × 10^-6 mol/L [1]	PT(S), human platelet poor plasma in vitro, 1 × 10^-6 mol/L (saline 11.22) [1]	TT(S), human platelet poor plasma in vitro, 1 × 10^-6 mol/L (saline 14.07) [1]	Inhibitory rate of platelet aggregation (%), ADP-induced human platelet aggregation in vitro, 1 × 10-5 mol/L [2]	Inhibitory rate of platelet aggregation (%), ADP-induced human platelet aggregation in vitro, 3 × 10-6 mol/L [2]	Platelet aggregation rate (%), ADP-induced human platelet aggregation in vitro, 1 × 10-5 mol/L (saline 73.39) [2]	Platelet aggregation rate (%), ADP-induced human platelet aggregation in vitro, 3 × 10-6 mol/L (saline 73.39) [2]
[dF]PRPGGGGNGRFEEIPEEYLEAAAKC[hArg]GDWPC (disulfide 26-32) [polypeptide 2]	104 s	3.35 fold	3.04 fold	34.8 s	> 180 s	100%	66.7%	0%	26.1%
FPRPGGGGNGDFEEIPEEYLCXGDWPC (D-Phe at position 1 (N-terminal); Har (homoarginine) at position 22; disulfide bond between the two Cys (21 and 27)) [polypeptide 3]	102 s	2.94 fold	2.14 fold	25.7 s	> 180 s	47.1%	26.4%	35.4%	57.9%
